{
  "source": "paper PMC12531337",
  "binders": {"B1": {"name": "ZnF-binding DNA (E2 box) (dsDNA)", "DNA 1": "GTAATCTGGGCCACCTGCCTGGGAGGA", "DNA 2": "TCCTCCCAGGCAGGTGGCCCAGATTAC"}},
  "target": "T1, ZEB2 ZnF8 peptide (UniProt O60315 1055-1076)",
  "T1 chain": "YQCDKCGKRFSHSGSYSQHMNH",
  "test": "NMR",
  "data": [
    {"binder": "B1", "values": [
      {"measurement": "binding result", "result": "binds"}
    ]}
  ]
}
